Reference: patent publication US20240238401A1

Molecular target: mAb binding to Consensus GII.4 VLPs (BioGenes; IgG clone #1-9-1)
Experiment: IVRP competition ELISA; serially diluted thin-film freeze-dried and reconstituted vaccine (4% trehalose or 5% sucrose, bulk or single-vial TFFD) competes for mAb against plate-coated VLP; reference is undried vaccine

**Q.** With “Norovirus genotype GII.4 Consensus VLP (from UniProt P54635 1-539)” as the substance, how does the relative potency (IVRP; inflection point of test vaccine divided by that of reference vaccine) read?
**A.** 49 to 73%
